According to patent US20050136044A1, “Butyrylcholinesterase variants that alter the activity of chemotherapeutic agents” (priority 2003, published 2005):
Where “and” joins values, the source holds several entries; their conditions need not be identical. Identical values can stand only once. Entries after “also recorded” stand apart in the source; their conditions may differ. Like-named read-outs stand apart in the source and are kept apart here.

Key:
[1] = CPT-11 conversion to SN-38, fluorescent HPLC detection, conditioned media of transiently expressed BChE variants; assay type: biochemical; settings: for Fold improvement in CPT-11 conversion: compared to wild-type butyrylcholinesterase, conditioned media exposed to 20 mM CPT-11 for 72 hours at 37° C., SN-38 by HPLC, conservative values; for CPT-11 conversion to SN-38 (SN-38 formation by HPLC), in words: conditioned media, 20 mM CPT-11, 72 hours, 37° C., versus mock / wild-type
Protocol: Butyrylcholinesterase variants were assayed for CPT-11 conversion activity using fluorescent High Performance Liquid Chromotography (HPLC) detection of SN-38 formation as described in Dodds and Rivory, Mol. Pharmacol. 56: 1346-1353 (1999), which is incorporated herein by reference. Briefly, conditioned media from transiently expressed BChE variants were exposed to 20 mM CPT-11 for 72 hours at 37° C. and analyzed by HPLC for SN-38 formation (peak at about 4 minutes column retention time).

[2] = cited from earlier work; for Km: Humerickhouse et al. 2000, read-out: Km (CPT-11 conversion)
[3] = BChE-mediated CPT-11 hydrolysis, SN38 quantitated by reverse-phase HPLC with fluorescence detection; Km by Hofstee plot; assay type: biochemical; settings: for increase in CPT-11 hydrolysis over wild-type BChE: SN38 peak AUC, wild type 20 μg, BChE.4-1 0.05 μg; for improvement in the Km for CPT-11: versus wild-type / native serum BChE
Protocol: BChE plasmid variants were expressed transiently in the human embryonic kidney cell line 293T and assayed for activity at 72 hours post-transfection. Primary screening of variants was performed by indirect measurement of enzymatic activation of CPT-11 (FIG. 2) in SW48 colon carcinoma cell cytotoxicity assays. […] Functional hits identified in these assays were characterized by sequence analysis of the corresponding DNA from the original preps. […] Enzyme was incubated at 37° C. for 24 hours with CPT-11 over a range of concentrations from 1-80 μM. […] Velocity (v) is in light absorbance units at 540 nm. Substrate concentration [s] is μM CPT-11.
Samples were acidified and resolved by reverse-phase HPLC on a NovaPak C18 column to separate SN38 from unactivated CPT-11. SN38 peak area under the curve (AUC) was used to compare CPT-11 activation by the wild-type enzyme to the optimized BChE.4-1 variant.

Row | Molecule | Fold improvement in CPT-11 conversion [1] [fold] | CPT-11 conversion to SN-38 (SN-38 formation by HPLC), in words [1] | further results
1 | F227A/L286H | >35 | increased CPT-11 conversion to SN-38 | 
2 | F227A/L286S | >50 | significant conversion; also recorded: increased CPT-11 conversion to SN-38 | Fold improvement in CPT-11 conversion ([1]; listed as F227A/L268S): ≥ 50 fold
3 | hCE-1 |  |  | Km [2]: 43 µM
4 | hCE-2 (protein, UniProt O00748 27-559, looked up) Cocaine esterase: QDSASPIRTTHTGQVLGSLVHVKGANAGVQTFLGIPFAKPPLGPLRFAPPEPPESWSGVRDGTTHPAMCLQDLTAVESEFLSQFNMTFPSDSMSEDCLYLSIYTPAHSHEGSNLPVMVWIHGGALVFGMASLYDGSMLAALENVVVVIIQYRLGVLGFFSTGDKHATGNWGYLDQVAALRWVQQNIAHFGGNPDRVTIFGESAGGTSVSSLVVSPISQGLFHGAIMESGVALLPGLIASSADVISTVVANLSACDQVDSEALVGCLRGKSKEEILAINKPFKMIPGVVDGVFLPRHPQELLASADFQPVPSIVGVNNNEFGWLIPKVMRIYDTQKEMDREASQAALQKMLTLLMLPPTFGDLLREEYIGDNGDPQTLQAQFQEMMADSMFVIPALQVAHFQCSRAPVYFYEFQHQPSWLKNIRPPHMKADHGDELPFVFRSFFGGNYIKFTEEEEQLSRKMMKYWANFARNGNPNGEGLPHWPLFDQEEQYLQLNLQPAVGRALKAHRLQFWKKALPQKIQELEEPEERHTEL |  |  | catalytic efficiency relative to hCE-1 ([2]; CPT-11 conversion): 60 fold; Km [2]: 3.4 µM; rate of conversion of CPT-11 to SN38 relative to hCE-1 ([2]; at pharmacologically relevant concentrations of the drug (~1-10 μM)): 25-30 fold
5 | F227A (protein, synthetic butyrylcholinesterase variant; VARIANT 227: Xaa = Ala) EDDIIIATKNGKVRGMNLTVFGGTVTAFLGIPYAQPPLGRLRFKKPQSLTKWSDIWNATKYANSCCQNIDQSFPGFHGSEMWNPNTDLSEDCLYLNVWIPAPKPKNATVLIWIYGGGFQTGTSSLHVYDGKFLARVERVIVVSMNYRVGALGFLALPGNPEAPGNMGLFDQQLALQWVQKNIAAFGGNPKSVTLFGESAGAASVSLHLLSPGSHSLFTRAILQSGSXNAPWAVTSLYEARNRTLNLAKLTGCSRENETEIIKCLRNKDPQEILLNEAFVVPYGTPLSVNFGPTVDGDFLTDMPDILLELGQFKKTQILVGVNKDEGTAFLVYGAPGFSKDNNSIITRKEFQEGLKIFFPGVSEFGKESILFHYTDWVDDQRPENYREALGDVVGDYNFICPALEFTKKFSEWGNNAFFYYFEHRSSKLPWPEWMGVMHGYEIEFVFGLPLERRDNYTKAEEILSRSIVKRWANFAKYGNPNETQNNSTSWPVFKSTEQKYLTLNTESTRIMTKLRAQQCRFWTSFFPKVLEMTGNIDEAEWEWKAGFHRWNNYMMDWKNQFNDYTSKKESCVGL |  | produced a small amount of SN-38; also recorded: increased CPT-11 conversion to SN-38 | 
6 | F227A/S287P (protein, synthetic butyrylcholinesterase variant; VARIANT 227: Xaa = Ala; VARIANT 287: Xaa = Pr0) EDDIIIATKNGKVRGMNLTVFGGTVTAFLGIPYAQPPLGRLRFKKPQSLTKWSDIWNATKYANSCCQNIDQSFPGFHGSEMWNPNTDLSEDCLYLNVWIPAPKPKNATVLIWIYGGGFQTGTSSLHVYDGKFLARVERVIVVSMNYRVGALGFLALPGNPEAPGNMGLFDQQLALQWVQKNIAAFGGNPKSVTLFGESAGAASVSLHLLSPGSHSLFTRAILQSGSANAPWAVTSLYEARNRTLNLAKLTGCSRENETEIIKCLRNKDPQEILLNEAFVVPYGTPLXVNFGPTVDGDFLTDMPDILLELGQFKKTQILVGVNKDEGTAFLVYGAPGFSKDNNSIITRKEFQEGLKIFFPGVSEFGKESILFHYTDWVDDQRPENYREALGDVVGDYNFICPALEFTKKFSEWGNNAFFYYFEHRSSKLPWPEWMGVMHGYEIEFVFGLPLERRDNYTKAEEILSRSIVKRWANFAKYGNPNETQNNSTSWPVFKSTEQKYLTLNTESTRIMTKLRAQQCRFWTSFFPKVLEMTGNIDEAEWEWKAGFHRWNNYMMDWKNQFNDYTSKKESCVGL | >6 | increased CPT-11 conversion to SN-38 | 
7 | F227A/L286W (protein, synthetic butyrylcholinesterase variant) EDDIIIATKNGKVRGMNLTVFGGTVTAFLGIPYAQPPLGRLRFKKPQSLTKWSDIWNATKYANSCCQNIDQSFPGFHGSEMWNPNTDLSEDCLYLNVWIPAPKPKNATVLIWIYGGGFQTGTSSLHVYDGKFLARVERVIVVSMNYRVGALGFLALPGNPEAPGNMGLFDQQLALQWVQKNIAAFGGNPKSVTLFGESAGAASVSLHLLSPGSHSLFTRAILQSGSANAPWAVTSLYEARNRTLNLAKLTGCSRENETEIIKCLRNKDPQEILLNEAFVVPYGTPWSVNFGPTVDGDFLTDMPDILLELGQFKKTQILVGVNKDEGTAFLVYGAPGFSKDNNSIITRKEFQEGLKIFFPGVSEFGKESILFHYTDWVDDQRPENYREALGDVVGDYNFICPALEFTKKFSEWGNNAFFYYFEHRSSKLPWPEWMGVMHGYEIEFVFGLPLERRDNYTKAEEILSRSIVKRWANFAKYGNPNETQNNSTSWPVFKSTEQKYLTLNTESTRIMTKLRAQQCRFWTSFFPKVLEMTGNIDEAEWEWKAGFHRWNNYMMDWKNQFNDYTSKKESCVGL | >42 | increased CPT-11 conversion to SN-38 | 
8 | F227A/T284A (protein, synthetic butyrylcholinesterase variant; VARIANT 227: Xaa = Ala; VARIANT 284: Xaa = Ala) EDDIIIATKNGKVRGMNLTVFGGTVTAFLGIPYAQPPLGRLRFKKPQSLTKWSDIWNATKYANSCCQNIDQSFPGFHGSEMWNPNTDLSEDCLYLNVWIPAPKPKNATVLIWIYGGGFQTGTSSLHVYDGKFLARVERVIVVSMNYRVGALGFLALPGNPEAPGNMGLFDQQLALQWVQKNIAAFGGNPKSVTLFGESAGAASVSLHLLSPGSHSLFTRAILQSGSXNAPWAVTSLYEARNRTLNLAKLTGCSRENETEIIKCLRNKDPQEILLNEAFVVPYGXPLSVNFGPTVDGDFLTDMPDILLELGQFKKTQILVGVNKDEGTAFLVYGAPGFSKDNNSIITRKEFQEGLKIFFPGVSEFGKESILFHYTDWVDDQRPENYREALGDVVGDYNFICPALEFTKKFSEWGNNAFFYYFEHRSSKLPWPEWMGVMHGYEIEFVFGLPLERRDNYTKAEEILSRSIVKRWANFAKYGNPNETQNNSTSWPVFKSTEQKYLTLNTESTRIMTKLRAQQCRFWTSFFPKVLEMTGNIDEAEWEWKAGFHRWNNYMMDWKNQFNDYTSKKESCVGL | >7 | increased CPT-11 conversion to SN-38 | 
9 | 4-1 variant (protein, synthetic butyrylcholinesterase variant; VARIANT 227: Xaa = Ala) EDDIIIATKNGKVRGMNLTVFGGTVTAFLGIPYAQPPLGRLRFKKPQSLTKWSDIWNATKYANSCCQNIDQSFPGFFGSEMWNPNTDLSEDCLYLNVWIPAPKPKNATVLIWIYGGGFQTGTSSLHVYDGKFLARVERVIVVSMNYRVGALGFLALPGNPEAPGNMGLFDQQLALQWVQKNIAAFGGNPKSVTLFGESAGAASVSLHLLSPGSHSLFTRAILQSGSXNAPWAVTSLYEARNRTLNLAKLTGCSRENETEIIKCLRNKDPQEILLNEAFVVPYGTNLSVNFGPTVDGDFLTDMPDILLELGQFKKTQILVGVNKDEGTAFLAYGAPGFSKDNNSIITRKEFQEGLKIFFPGVSEFGKESILFHYTDWVDDQRPENYREALGDVVGDYNFICPALEFTKKFSEWGNNAFFYYFEHRSSKLPWPEWMGVMHGYEIEFVFGLPLERRDNYTKAEEILSRSIVKRWANFAKYGNPNETQNNSTSWPVFKSTEQKYLTLNTESTRIMTKLRAQQCRFWTSFFPKVLEMTGNIDEAEWEWKAGFHRWNNYMMDWKNQFNDYTSKKESCVGL |  |  | Km ([3]; 37° C., 24 hours, CPT-11 1-80 μM, Hofstee plot): ~7 µM and 6.9 µM; increase in CPT-11 hydrolysis over wild-type BChE ([3]; 37° C., 24 hours): > 3000 fold; increase in CPT-11 hydrolysis over wild-type BChE ([3]; 37° C., 24 hours, listed as H77F, F227A, P285N, V331A): at least a three thousand-fold; increase in CPT-11 hydrolysis over wild-type BChE ([3]; 37° C., 24 hours, listed as SEQ ID NO: 180): at least a three thousand-fold; improvement in the Km for CPT-11 [3]: 5-6 fold; improvement in the Km for CPT-11 ([3]; listed as BChE variant 4-1): 5-6 fold and > 5 fold
